Data from publication PMC5783997.

Assays:
[1] = molecular target: PucD LH2 α-apoprotein (α-polypeptide encoded by the pucBAd gene pair) (Rhodopseudomonas palustris (endogenous in the ΔpucBAabce mutant; genome sequence of strain CGA009)); assay: crystal structure; PucD LH2 in 20 mM Tris-Cl pH 8.0, 0.15% DM, 3.0% HPT, PEG 600, 50 mM CaCl2, 16 °C; data to 4.71 Å; molecular replacement with the nonameric Rps. acidophila 10050 LH2, jelly-body refinement
[2] = molecular target: PucD LH2 β-apoprotein (β-polypeptide encoded by the pucBAd gene pair) (Rhodopseudomonas palustris (endogenous in the ΔpucBAabce mutant; genome sequence of strain CGA009)); assay: as above

stoichiometry N [1] | stoichiometry N [2] | Substance
9 |  | PucD LH2 α-apoprotein (α-polypeptide encoded by the pucBAd gene pair) (natural protein)
 | 9 | PucD LH2 β-apoprotein (β-polypeptide encoded by the pucBAd gene pair) (natural protein)
